Data on 1 variant can be found in article PMC7679444 (2020).

To fix the notation:
B1: GST-HA-ATG16L1(231–607) [human] / TMEM59 peptide (residues 268–280), wild type [modified: long spacer (Tds) at the N-terminal end, used for immobilisation; long spacer (Tds) at the N-terminal end, used for immobilisation] [not stated] (parent complex)
chain 1: PLPVEQDDDIEVIVDETSDHTEETSPVRAISRAATKRLSQPAGGLLDSITNIFGRRSVSSFPVPQDNVDTHPGSGKEVRVPATALCVFDAHDGEVNAVQFSPGSRLLATGGMDRRVKLWEVFGEKCEFKGSLSGSNAGITSIEFDSAGSYLLAASNDFASRIWTVDDYRLRHTLTGHSGKVLSAKFLLDNARIVSGSHDRTLKLWDLRSKVCIKTVFAGSSCNDIVCTEQCVMSGHFDKKIRFWDIRSESIVREMELLGKITALDLNPERTELLSCSRDDLLKVIDLRTNAIKQTFSAPGFKCGSDWTRVVFSPDGSYVAAGSAEGSLYIWSVLTGKVEKVLSKQHSSSINAVAWSPSGSHVVSVDKGCKAVLWAQY
chain 2: YVPSEKLSIYGDL

Variants of B1 are the subject of this test. Briefly: peptide microarray; 800, 400 nM (n = 6); parent: 100; read off a plot.
Regarding chain 2 Y1A, chain 2 E5A, chain 2 Y10A, chain 2 L13A, the percent of parent is about 1 % WT.
